Data on three molecules can be found in patent publication US20170081412A1 (MITSUBISHI TANABE PHARMA, published 2017).

The target in assay [1] is T1, recombinant human IL-6R (human, UniProt P08887 20-365).
T1 construct: The sandwich ELISA used a His-tagged form; also called soluble IL-6R; His-tagged human IL-6R
T1 sequence: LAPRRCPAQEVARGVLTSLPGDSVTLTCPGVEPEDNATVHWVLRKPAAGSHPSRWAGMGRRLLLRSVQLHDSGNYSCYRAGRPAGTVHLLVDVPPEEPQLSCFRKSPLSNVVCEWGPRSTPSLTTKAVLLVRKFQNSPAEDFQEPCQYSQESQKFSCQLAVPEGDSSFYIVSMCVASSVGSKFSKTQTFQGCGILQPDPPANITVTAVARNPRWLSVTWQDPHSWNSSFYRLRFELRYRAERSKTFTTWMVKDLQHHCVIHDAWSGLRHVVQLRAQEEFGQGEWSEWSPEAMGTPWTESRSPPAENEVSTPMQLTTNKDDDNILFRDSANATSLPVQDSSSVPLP
The assay can be described thus: SPR: antibody captured on an amine-coupled anti-human antibody (GLM chip), recombinant human IL-6R flowed as analyte. An excerpt: (§1) To determine the affinity and kinetic parameters of FynomAb binding to human IL-17A and human IL-6R, an anti-human antibody was amine coupled to a GLM chip.
On the technique in general: SPR reads the build-up and loss of mass on a sensor chip optically.

Assay [2] concerns the target T2, human IL-6R on the surface of HEK Blue IL-6 cells (human, UniProt P08887 20-468).
T2 construct: HEK Blue IL-6 cells (Invivogen); also called cell surface IL-6R; HEK-Blue-IL6 cells (IL6R+)
T2 sequence: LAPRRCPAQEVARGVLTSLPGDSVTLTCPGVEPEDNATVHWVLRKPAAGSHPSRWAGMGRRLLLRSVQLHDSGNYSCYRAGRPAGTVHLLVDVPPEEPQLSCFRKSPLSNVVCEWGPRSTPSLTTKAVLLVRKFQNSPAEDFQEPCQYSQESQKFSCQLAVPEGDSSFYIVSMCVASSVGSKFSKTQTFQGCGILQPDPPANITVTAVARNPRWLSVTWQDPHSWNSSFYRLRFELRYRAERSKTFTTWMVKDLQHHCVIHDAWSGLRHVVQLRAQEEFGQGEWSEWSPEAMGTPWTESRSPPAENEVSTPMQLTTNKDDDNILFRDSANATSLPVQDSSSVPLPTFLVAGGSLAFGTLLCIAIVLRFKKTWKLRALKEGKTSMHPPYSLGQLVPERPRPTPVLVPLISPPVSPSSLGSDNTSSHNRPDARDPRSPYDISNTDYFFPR
The assay can be described thus: flow cytometry: HEK-Blue IL-6 cells (IL-6R+), drug titrated about 0.005-300 nM, detected with anti-human IgG-Alexa488. For orientation: A flow cytometer gives signals particle by particle.

Assay [3] concerns the target T1, recombinant human IL-6R. The assay can be described thus: SPR (representative sensorgram with fit): antibody captured on an amine-coupled anti-human antibody (GLM chip), recombinant human IL-6R flowed as analyte.
Text: as §1

The target in a further assay is T3, recombinant human IL-17A (human, UniProt Q16552 24-155, limits assumed).
T3 construct: In the flow cytometry assay it was biotinylated; also called soluble IL-17A
The assay is described as follows: SPR: antibody captured on an amine-coupled anti-human antibody (GLM chip), recombinant human IL-17A flowed as analyte.
Text: as §1

Assay [4] has as its target T1, recombinant human IL-6R. The assay is described as follows: SPR (representative sensorgram with fit): antibody captured on an amine-coupled anti-human antibody (GLM chip), recombinant human IL-6R flowed as analyte.
Text: as §1
This is another data set of the same source.

The target in assay [5] is T1, recombinant human IL-6R. The assay is described as follows: SPR, binder captured by anti-human antibody on GLM chip, IL-6R as analyte; average of 4 experiments.
Text: as §1

Assay [6] has as its target T1, recombinant human IL-6R. The assay is described as follows: SPR, binder captured by anti-human antibody on GLM chip, IL-6R as analyte; average of 4 experiments; column head prints nM, value taken as M.
Text: as §1

Assay [7] addresses T1, recombinant human IL-6R. The assay can be described thus: SPR, binder captured by anti-human antibody on GLM chip, IL-6R as analyte; average of 6 experiments.
Text: as §1

For assay [8], the target named is T1, recombinant human IL-6R. The assay is described as follows: SPR, binder captured by anti-human antibody on GLM chip, IL-6R as analyte; average of 6 experiments; column head prints nM, value taken as M.
Text: as §1

T3 sequence (Q16552 24-155 limits assumed): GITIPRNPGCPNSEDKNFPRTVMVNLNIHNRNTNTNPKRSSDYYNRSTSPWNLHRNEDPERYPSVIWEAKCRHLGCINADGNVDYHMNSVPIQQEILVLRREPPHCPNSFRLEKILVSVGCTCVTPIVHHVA

B1: secukinumab (antibody, human IgG1, kappa, V domains shown)
VH: EVQLVESGGGLVQPGGSLRLSCAASGFTFSNYWMNWVRQAPGKGLEWVAAINQDGSEKYYVGSVKGRFTISRDNAKNSLYLQMNSLRVEDTAVYYCVRDYYDILTDYYIHYWYFDLWGRGTLVTVSS
VL: not shown
For the molecule B1, in the assay with recombinant human IL-6R [1], the binding result is recorded as “no binding”.

B2: tocilizumab (produced in house in CHO cells) (antibody, human IgG1, kappa)
heavy: not shown
light: not shown
notes: also called parental antibody
As a reminder, the EC50 (read off the curve) is the concentration that produces a half-maximal response. Read a high EC50 (read off the curve) as weaker potency. One may read the Kd as the concentration at which binding is half-saturated. One may read the koff as a measure of how fast the partners let go of each other. For orientation: kon means a measure of how fast the partners come together. With B2, the “EC50 (read off the curve)” value in assay [2] was roughly 1 nM. Besides, the figures for the Kd with recombinant human IL-6R [3], with recombinant human IL-6R [4] and with recombinant human IL-6R [6] were 0.467 nM, 0.41 nM and 0.417 nM, respectively. For the same molecule, the koff is 0.000199 s⁻¹ in the assay with recombinant human IL-6R [3], 0.000189 s⁻¹ with recombinant human IL-6R [4] and 0.000186 s⁻¹ with recombinant human IL-6R [5]. Further, the values for the kon with recombinant human IL-6R [3], with recombinant human IL-6R [4] and in the assay with recombinant human IL-6R [5] were 427000 M⁻¹ s⁻¹, 461000 M⁻¹ s⁻¹ and 473000 M⁻¹ s⁻¹, respectively. Besides, in the assay with recombinant human IL-17A, the binding result is listed as “no binding”.

B3: Actemra (commercial tocilizumab) (antibody, human IgG1, kappa)
heavy: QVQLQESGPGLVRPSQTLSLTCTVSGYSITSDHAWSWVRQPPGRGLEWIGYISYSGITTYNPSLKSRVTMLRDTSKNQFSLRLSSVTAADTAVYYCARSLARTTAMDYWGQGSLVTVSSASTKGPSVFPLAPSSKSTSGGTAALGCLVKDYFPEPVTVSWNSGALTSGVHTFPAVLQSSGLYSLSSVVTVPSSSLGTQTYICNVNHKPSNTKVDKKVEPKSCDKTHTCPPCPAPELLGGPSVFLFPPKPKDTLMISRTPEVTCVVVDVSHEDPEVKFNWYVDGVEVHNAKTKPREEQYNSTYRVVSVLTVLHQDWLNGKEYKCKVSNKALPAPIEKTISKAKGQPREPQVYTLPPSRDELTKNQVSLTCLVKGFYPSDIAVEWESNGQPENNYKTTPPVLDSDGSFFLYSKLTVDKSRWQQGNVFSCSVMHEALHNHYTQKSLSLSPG
light: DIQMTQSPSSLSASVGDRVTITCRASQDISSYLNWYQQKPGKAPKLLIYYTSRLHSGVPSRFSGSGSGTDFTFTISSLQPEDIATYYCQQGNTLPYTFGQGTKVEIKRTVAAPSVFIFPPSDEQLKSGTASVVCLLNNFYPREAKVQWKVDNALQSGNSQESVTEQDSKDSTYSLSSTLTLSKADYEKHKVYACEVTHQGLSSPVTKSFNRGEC
notes: also called commercial Actemra; commercial grade Actemra
As for B3, in the assay with recombinant human IL-6R [3], the Kd stood at 0.467 nM, the koff was found to be 0.000195 s⁻¹ and the kon came out at 417000 M⁻¹ s⁻¹. Further, the binding result with recombinant human IL-17A is “no binding”. Further, in the assay with recombinant human IL-6R [7], the koff was found to be 0.000191 s⁻¹ and the kon was found to be 413000 M⁻¹ s⁻¹. The Kd with recombinant human IL-6R [8] was 0.499 nM.
